# “Also recorded” adds a separate entry of the source.
# Columns and labels:
# ch-Antibody 51 = experiment: ligand cross-reactivity testing: inhibition of [3H]-METH binding to antibody
# From the text: Ch-Antibody 51 was designed to maintain the variable framework regions of the heavy and light chains of the mouse antibody including all three CDRs of both the heavy and the light chains, but includes a human IgG2 Fc region. These studies were designed to examine the potential for ch-Antibody 51 to bind to structurally-related stimulants, neurotransmitters, selected medications, and other drugs of abuse (Table 4). The assay used a modified radioimmunoassay (RIA) in a competitive binding format with [^3H]-METH (similar to RIA in Peterson et al., J Pharmacol Exp Ther (2008) 325:124-133) The assay is started by incubating radiolabeled METH ([^3H]-METH) with unlabeled potential ligand (concentrations typically range from 0.03-5000 nM), ch-Antibody 51, and Protein G conjugated to magnetic beads. After reaching equilibrium, the beads with bound antibody and ligand are separated from the solution with a magnet and the supernatant aspirated. The amount of mAb-bound [^3H]-METH is quantified by liquid scintillation counting. For each of the related stimulants, a complete inhibition curve was constructed to determine the KD or KI value (see FIG. 7). For the remaining test ligands, the same method was used, but only 2 concentrations of ligand were tested rather than the expanded range. Additionally, highly concentrated pools of compounds were used to attempt inhibition of [^3H]-METH binding to ch-Antibody 51. If METH binding was inhibited 50% or more by any pool of ligands, the assay was repeated with the compounds separately to identify the individual cross reacting ligands.
# Average disintegrations per minute (DPM) from the scintillation counter were plotted versus the concentration of unlabeled ligand using Origin software (OriginLab). A 4-parameter logistic function was fit to the data to obtain values describing the top and bottom plateaus, slope and mid-point. The mid-point of the curve identifies the concentration of unlabeled ligand required to inhibit 50% of the binding of [^3H]-METH. For homologous assays in which unlabeled METH competes with [^3H]-METH for binding to ch-Antibody 51, the dissociation constant (KD) is found by subtracting the concentration of [^3H]-METH from the mid-point. For non-homologous assays in which unlabeled ligands other than METH compete for binding with [^3H]-METH, the subtraction yields a KI value.
# Each pool was analyzed in triplicate, twice at each concentration.
# Three (3) of the pools inhibited binding of radiolabeled METH by more than 50%, therefore these individual ligands were retested at 1 μM in triplicate in 2 separate assays.
# [1] = long-term in vivo METH binding function during continuous sc (+)-METH infusion; set-up: species or system Sprague-Dawley rats; settings: rats, single iv mAb dose 180 mg/kg, sc (+)-METH infusion 5.6 mg/kg/day, serum METH to day 13
# Description: FIG. 1 depicts two graphs showing changes in METH in vivo binding by anti-METH monoclonal antibodies (mAbs) in the presence of a 13 day continuous METH infusion. Once METH achieved steady-state levels (pre-mAb) in each of the Sprague-Dawley rats (n=2 per group), a single dose of vehicle treatment (METH only) or of treatment with three different anti-METH mAbs were given as an iv bolus (180 mg/kg, equimolar in binding sites to the METH body burden). Serum samples were collected before the mAb treatment and at various time points after mAb treatment for determination of METH concentrations over time (A). Values represent the mean METH concentration of each group for each time point. METH AUC data is shown in (B). […]
# About 16 h after pumps implantation, the rats were anesthetized with halothane. […] METH concentrations in serum samples were then determined by liquid chromatograph/mass spectrometry/mass spectrometry (LC/MS/MS) analysis by a previously reported method from our laboratory (Laurenzana E M et al. Drug Metab Dispos (1995) 23: 271-278).
# The route of (+)-METH dosing was a subcutaneous (sc) infusion. […] Body weights, eating behavior, and general health observations were recorded for each animal. (+)-METH concentrations were determined by LC/MS/MS, similar to the method described by described by (Laurenzana E M et al. Drug Metab Dispos (1995) 23: 271-278). […]
# [2] = terminal elimination half-life in rats; format: in vivo; settings: unpublished finding
# [3] = (±)-METH priming-induced reinstatement (relapse) of lever pressing; format: in vivo, male Long Evans rat; settings: for response rate (lever presses on reinforced lever): Day 1, 1 mg/kg ip (±)-METH prime
# Description: The male Long Evans rat was chosen as the animal model for this study because it is a preferred rodent species for preclinical toxicity testing of drug self-administration paradigms. Commercially obtained test chambers equipped with two retractable levers, a white cue light positioned above each lever, a 5-w house light, and a Sonalert® tone generator (MED Associates, Inc., St. Albans, Vt.) emitting a 2900 Hz, 60 dB tone were used. Infusions were delivered in a 0.2 ml volume by a 6-s activation of infusion pumps (Model PHS-100; MED Associates, Inc., St. Albans, Vt.). Recordings of lever presses and activations of lights, pumps, and Sonalerts® were accomplished by a microcomputer, interface and associated software (MED-PC® IV, MED Associates, Inc., St. Albans, Vt.).
# (±)-METH self-administration (SA) training sessions were conducted five days per week (M-F) for 2 hrs daily. At the start of (±)-METH SA sessions, the levers were extended and the house light was illuminated. […] At the start of an infusion the house light was extinguished, the Sonalert® was sounded, and the cue lights above each lever flashed at 3 Hz. The Sonalert® and cue lights remained activated during the 6 s infusion. Twenty seconds following the onset of the infusion the house light was re-illuminated, and the opportunity to self-administer (±)-METH was again made available (i.e., each (±)-METH infusion initiated a 20 s period during which lever presses were recorded but were without scheduled consequences and further infusions could not be obtained). Reinforced-lever (right-side) lever presses during the infusions as well as all non-reinforced (left-side) lever presses were recorded, but the latter were without scheduled consequences.
# SA training continued until all three criteria had been met: 1) at least 12 self-administration sessions occurred; 2) at least 15 (±)-METH infusions occurred during each of the last four sessions; and, 3) at least 125 lifetime (±)-METH infusions were obtained. Subsequently, twelve 2-h daily (Mon-Sun) extinction sessions were conducted. […] Other conditions during extinction were identical to those during SA. That is, during extinction sessions, both levers were extended and the house light was activated. Before the last four extinction sessions, an injection of saline (the vehicle for (±)-METH prime) was administered ip 30 min pre-session to acclimate the rats to the injection procedure.
# Reinstatement testing followed extinction training. A rat was considered eligible for subsequent reinstatement testing if during the last three extinction sessions the mean number of reinforced-lever lever presses was less than the mean number occurring during the first three extinction sessions. […] One rat in the vehicle group was inadvertently retained, even though its response mean (12.3 responses) during the last three extinction sessions exceeded its first three extinction sessions (11.6 responses). Reinstatement testing occurred across 13 daily (Mon-Sun) 2-h experimental sessions. Conditions during reinstatement testing were identical to those during extinction training with two exceptions.
# The ip route of (±)-METH exposure during relapse testing was selected mainly for convenience of dosing and to avoid additional use of the catheters. […] The dose volume for each animal was based on the most recent body weight measurement.
# Body weights, eating behavior, and general health observations were recorded for each animal. Analyses of an animal's lever pressing responses to vehicle and (±)-METH-induced relapse to active lever responding were used as a measure of the animal's response to an ip injection of vehicle (control) or (±)-METH (1.0 mg/kg).
# Initially, the number of right-side lever presses occurring during test days between test groups was compared using a two-factor, repeated measures ANOVA (Prism 5 for Macintosh, GraphPad Software, Inc., San Diego, Calif.). […]
# [4] = individual ligands at 1 μM, triplicate in 2 assays, average
molecule,measurement,setting,value
(+)-Norpseudoephedrine,Percent inhibition of [3H]-METH binding,ch-Antibody 51; [4],36.3%
"CNC(C)Cc1ccc2c(c1)OCO2 (single isomer, unassigned; (-)) [(−)-MDMA]",Percent inhibition of [3H]-METH binding,ch-Antibody 51; [4],78.3%
same,Ki,ch-Antibody 51; inferred from more than 50% inhibition at 1 μM,< 1000 nM
NCCc1ccccc1 [2-Phenylethylamine],Percent inhibition of [3H]-METH binding,ch-Antibody 51; [4],20.0%
"CC(N)Cc1ccc2c(c1)OCO2 (single isomer, unassigned; (+)) [(+)-MDA, (+) 3,4-methylenedioxyamphetamine]",Percent inhibition of [3H]-METH binding,ch-Antibody 51; [4],40.7%
NCCc1ccc(O)cc1 [Tyramine],Percent inhibition of [3H]-METH binding,"ch-Antibody 51; ligand pool, each inhibitor in pool 1 μM",2.1%
same,Percent inhibition of [3H]-METH binding,"ch-Antibody 51; ligand pool, each inhibitor in pool 10 μM",7.5%
CNC[C@H](O)c1cccc(O)c1 [(−)-Phenylephrine],Percent inhibition of [3H]-METH binding,ch-Antibody 51; [4],38.2%
CN[C@@H](C)[C@H](O)c1ccccc1 (racemic) [(±)-Ephethine],Percent inhibition of [3H]-METH binding,ch-Antibody 51; [4],26.1%
(+)-Pseudoephedrine,Percent inhibition of [3H]-METH binding,ch-Antibody 51; [4],5.1%
"Antibody 51: high affinity murine anti-METH monoclonal antibody; light chain SEQ ID NO: 3, heavy chain SEQ ID NO: 4 (antibody, SYTHENSIZED) heavy: EIQLQQSGPELGKPGASVKVSCRASGFSFADYYIYWVKQSHGKSLELIGYIDPFNGGDTYNQIFKGKATLTVDKSSSTAFMYLNSLTSEDSAVYYCAAFRNPSFDFWGQGTTLTVSSAKTTPPSVYPLAPGSAAQTNSMVTLGCLVKGYFPEPVTVTWNSGSLSSGVHTFPAVLQSDLYTLSSSVTVPSSTWPSETVTCNVAHPASSTKVDKKIVPRDCGCKPCICTVPEVSSVFIFPPKPKDVLTITLTPKVTCVVVDISKDDPEVQFSWFVDDVEVHTAQTQPREEQFNSTFRSVSELPIMHQDWLNGKEFKCRVNSAAFPAPIEKTISKTKGRPKAPQVYTIPPPKEQMAKDKVSLTCMITDFFPEDITVEWQWNGQPAENYKNTQPIMDTDGSYFVYSKLNVQKSNWEAGNTFTCSVLHEGLHNHHTEKSLSHSPGK light: QIVLIQSPPIMSASPGEKVTLTCSASSSVSSRYLYWYQQKPGSSPKLWIYGTSNLASGVPARFSGSGSGTSFSLTISSMEAEDAASYFCHQWSSFPFTFGSGTKLEIKRADAAPTVSIFPPSSEQLTSGGASVVCFLNNFYPKDINVKWKIDGSERQNGVLNSWTDQDSKDSTYSMSSTLTLTKDEYERHNSYTCEATHKTSTSPIVKSFNRNEC",long-term in vivo METH binding function,[1],showed long-term functional properties
same,terminal elimination half-life,[2],~140 h
same,responding with subsequent treatments every three days,[3]; 30 mg/kg iv,maintained responding at levels always higher than the control
same,increase over control values,"[3]; 30 mg/kg iv, Day 1",143%
same,response rate (lever presses on reinforced lever),[3]; 30 mg/kg iv,70 presses
same,responding with subsequent treatments every three days,[3]; 56 mg/kg iv,progressively lower responses from the Day 1 level of responding
same,increase over control values,"[3]; 56 mg/kg iv, Day 1",182%
same,response rate (lever presses on reinforced lever),[3]; 56 mg/kg iv,91 presses
same,lever presses,"[3]; 100 mg/kg iv, Day 1",~50 lever presses
same,responding compared to vehicle,"[3]; 100 mg/kg iv, Day 1",at the same level as vehicle treatment responding
same,apparent METH dose on ascending side of simulated dose-response curve,"[3]; 100 mg/kg iv, Day 1, pharmacodynamic simulation, 50 responses",~0.025 mg/kg/inj
same,responding compared to control,"[3]; 100 mg/kg iv, Day 7, after third dose",significantly reduced; also recorded: near extinction
same,responding,"[3]; 100 mg/kg iv, Day 10, administration stopped",remained blunted
same,responding,"[3]; 100 mg/kg iv, Day 13, administration stopped",return to near control levels of responding
same,responding compared to control,"[3]; 100 mg/kg iv, after the second administration",reduced responding below control levels

# Reference: US9023353B2, “Anti-(+)—methamphetamine monoclonal antibodies” (Board of Trustees University of Arkansas, priority 2013, dated 2015)
